From US20100143950A1
Several values for one entry are separate records, joined by “and”; a condition that tells them apart may be missing. Equal entries are not always repeated.

Assays:
[1] = biological target: C-reactive protein (CRP) (human) (UniProt P02741); experiment: ELISA, purified CFH variant on plate-coated CRP
[2] = biological target: C-reactive protein (CRP) (human) (UniProt P02741); experiment: ELISA, serum 1:1,000 on plate-coated CRP, detection with goat anti-human CFH

UniProt P02741, sequence (P02741 19-224 limits assumed): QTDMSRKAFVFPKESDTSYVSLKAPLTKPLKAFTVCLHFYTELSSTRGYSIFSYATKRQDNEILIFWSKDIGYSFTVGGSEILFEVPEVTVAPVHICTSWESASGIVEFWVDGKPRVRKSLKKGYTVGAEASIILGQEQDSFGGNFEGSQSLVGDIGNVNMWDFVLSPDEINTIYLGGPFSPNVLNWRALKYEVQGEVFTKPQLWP

OD492 [1]: 0.763 OD492 | OD492 [2]: 0.532 OD492 and 0.609 OD492
Substance: Complement Factor H 402Y variant (CFH402Y), from human serum of TT homozygotes (from UniProt P08603 19-1231)
